Assay results published in patent US20080274100A1.
Where a chain is given by its changes, count along the chain named. Like-named read-outs stand apart in the source and are kept apart here.

B1: S1 scFv (scFv)
scFv: EVQLVESGGGVVRPGGSLRLSCAASGFTFDLNPKVKHMWVRQAPGKGLEWVSGINWNGGSTGYADSVKGRFTISRDNAKNSLYLQMNSLRAEDTAVYYCARLRPPFLWGQGTLVTVSRGGGGSGGGGSGGGGSSELTQDPAVSVALGQTVRITCQGDSLRSYYASWYQQKPGQAPVLVIYGKNNRPSGIPDRFSGSSSGNTASLTITGAQAEDEADYYCNSRDSSGNHVVFGGGTKLTVLGAAAEQKLISEEDLNGAA
B2: S11 scFv (scFv)
scFv: B1 scFv with P104Y, L107F

How the values were obtained:
[1] = target: GPIb on human platelets (human) (UniProt P07359); assay: FACS on human platelets
[2] = target: CCR5 (residues 1-18) derived peptide, non-sulfated; assay: peptide ELISA, 0.5 µg/well scFv
[3] = target: CCR5 (residues 1-18) derived peptide, sulfated at 1st tyrosine position; assay: peptide ELISA, 0.5 µg/well scFv
[4] = target: CCR5 (residues 1-18) derived peptide, sulfated at 2nd tyrosine position; assay: peptide ELISA, 0.5 µg/well scFv
[5] = target: CCR5 (residues 1-18) derived peptide, sulfated at 3rd tyrosine position; assay: peptide ELISA, 0.5 µg/well scFv
[6] = target: GPIb (residues 268-285) derived peptide, non-sulfated; assay: peptide ELISA, 0.5 µg/well scFv
[7] = target: GPIb (residues 268-285) derived peptide, sulfated at 1st tyrosine position; assay: peptide ELISA, 0.5 µg/well scFv
[8] = target: GPIb (residues 268-285) derived peptide, sulfated at 3rd tyrosine position; assay: peptide ELISA, 0.5 µg/well scFv
[9] = target: PSGL-1 (residues 42-58) derived peptide, non-sulfated; assay: peptide ELISA, 0.5 µg/well scFv
[10] = target: PSGL-1 (residues 42-58) derived peptide, sulfated at 1st tyrosine position; assay: peptide ELISA, 0.5 µg/well scFv
[11] = target: PSGL-1 (residues 42-58) derived peptide, sulfated at 2nd tyrosine position; assay: peptide ELISA, 0.5 µg/well scFv
[12] = target: PSGL-1 (residues 42-58) derived peptide, sulfated at 3rd tyrosine position; assay: peptide ELISA, 0.5 µg/well scFv
[13] = target: CCR5 (residues 1-18) derived peptide, sulfated at 2nd tyrosine position; assay: peptide ELISA, 0.5 µg/well scFv; remark: listed apart in the source
[14] = target: GPIb (residues 268-285) derived peptide, sulfated at 1st tyrosine position; assay: peptide ELISA, 0.5 µg/well scFv; remark: listed apart in the source
[15] = target: GPIb (residues 268-285) derived peptide, sulfated at 3rd tyrosine position; assay: peptide ELISA, 0.5 µg/well scFv; remark: listed apart in the source
[16] = target: PSGL-1 (residues 42-58) derived peptide, sulfated at 3rd tyrosine position; assay: peptide ELISA, 0.5 µg/well scFv; remark: listed apart in the source

GPIb on human platelets (human), sequence (P07359 17-652): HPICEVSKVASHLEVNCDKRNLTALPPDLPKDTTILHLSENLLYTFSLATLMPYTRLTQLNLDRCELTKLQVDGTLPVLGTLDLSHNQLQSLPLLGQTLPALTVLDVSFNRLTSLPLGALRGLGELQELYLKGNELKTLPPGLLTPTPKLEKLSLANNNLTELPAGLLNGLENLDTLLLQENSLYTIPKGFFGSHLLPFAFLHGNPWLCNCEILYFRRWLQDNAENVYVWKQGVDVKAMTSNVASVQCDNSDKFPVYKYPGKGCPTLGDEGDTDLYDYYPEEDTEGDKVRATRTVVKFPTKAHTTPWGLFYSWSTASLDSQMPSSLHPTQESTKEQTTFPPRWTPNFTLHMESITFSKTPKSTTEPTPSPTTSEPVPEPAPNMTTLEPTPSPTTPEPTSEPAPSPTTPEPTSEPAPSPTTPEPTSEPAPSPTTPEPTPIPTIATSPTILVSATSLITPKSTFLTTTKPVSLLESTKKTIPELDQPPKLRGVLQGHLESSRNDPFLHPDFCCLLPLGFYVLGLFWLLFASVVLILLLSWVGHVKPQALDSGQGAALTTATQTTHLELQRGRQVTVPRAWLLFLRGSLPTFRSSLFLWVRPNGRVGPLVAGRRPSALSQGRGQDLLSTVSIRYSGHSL

| Binder | fold binding capacity relative to Y1 [1] [fold] | ELISA read-out at 450 nm [2] [OD 450 nm] | ELISA read-out at 450 nm [3] [OD 450 nm] | ELISA read-out at 450 nm [4] [OD 450 nm] | ELISA read-out at 450 nm [5] [OD 450 nm] | ELISA read-out at 450 nm [6] [OD 450 nm] | ELISA read-out at 450 nm [7] [OD 450 nm] | ELISA read-out at 450 nm [8] [OD 450 nm] | ELISA read-out at 450 nm [9] [OD 450 nm] | ELISA read-out at 450 nm [10] [OD 450 nm] | ELISA read-out at 450 nm [11] [OD 450 nm] | ELISA read-out at 450 nm [12] [OD 450 nm] | ELISA read-out at 450 nm [13] [OD 450 nm] | ELISA read-out at 450 nm [14] [OD 450 nm] | ELISA read-out at 450 nm [15] [OD 450 nm] | ELISA read-out at 450 nm [16] [OD 450 nm] |
| --- | --- | --- | --- | --- | --- | --- | --- | --- | --- | --- | --- | --- | --- | --- | --- | --- |
| B1 | 25 | 0.06 | 0.07 | 0.3 | 0.07 | 0.07 | 0.8 | 0.15 | 0.07 | 0.1 | 0.08 | 0.8 | – | – | – | – |
| B2 | – | 0.08 | – | – | – | 0.1 | – | – | 0.01 | – | – | – | 0.7 | 0.6 | 0.3 | 0.7 |
